*1 amine or outer side, *2 acyl side, *3 side chain or, on linkers, in order; H or OH if unused. Where a SMILES comes first, the peptide text is derived from it. Bridges are numbered along the chain shown (N, C = ends). Side-chain parts run from the residue outwards. [ ]: non-standard residue; d: D form. The star is where a group is joined. X1 = O=C([C@@H](Cc1ccccc1)N(c1c(NCCCCCN(O)[*:3])c(=O)c1=O)[*:1])[*:2]; X2 = CC(=O)N(O)CCCCCNC(=O)CCC(=O)N(O)CCCCCN*; Thr(ol) = C[C@@H](O)[C@H](N)CO; Suc = O=C(CCC(=O)[*:2])[*:1]
Tests used:
[1] = system: LNCaP (human PSMA expressing prostate cancer cell line) tumour; design: species or system mice; conditions: mouse, in vivo
Method: (§1) PET-CT imaging and Biodistribution. Male Balb/c nude mice (age 8.5 weeks) or Male NSG mice (age 12 weeks) were inoculated subcutaneously on the right flank with 6×10^6 LNCap cells in PBS:Matrigel (1:1). Mice were weighed and tumours measured twice weekly using electronic callipers. Tumour volume (mm^3) was calculated as length×width×height×π/6. Mice were assigned for imaging and biodistribution studies (tumour volumes: 85-450 mm3). ^89Zr-DFOSq-PSMA tracers were then administered intravenously by tail vein injection to 6 mice. At 1, 2, 4 and 18 hr post injection three mice were anaesthetised using isoflurane and placed on the imaging bed of a G8 PET/CT scanner (Perkin Elmer). A CT scan was performed and followed immediately by a 10 min static PET scan. PET images were reconstructed using the maximal likelihood and expectation maximization (ML-EM) algorithm. PET Images were analysed using VivoQuant (Invicro) and Tumour SUVmax or Tumour SUVmax/background average (TBR) determined. After imaging at 18 hr mice were euthanised and selected tissues were excised, weighed and counted using a Capintec (Captus 4000e) gamma counter. A separate cohort of 3 mice was harvested at 1 hr post injection for biodistribution analysis as above. The data was analysed using GraphPad Prism 7 and differences between tracers analysed using a t-test.
(§2) ^89Zr Labelled tracers: The ^89Zr radiolabelled PSMA tracers were injected intravenously via tail vein to LNCaP (human PSMA expressing prostate cancer cell line) tumour bearing mice. At 1, 2, 4 and 18 h post-injection the mice were anaesthetised with isoflurane and imaged over 10 min. The representative PET images of mice injected with ^89Zr radiolabelled PSMA tracers at 1 and 18 hr are shown in FIG. 1 and quantitation of the Tumour SUVmax for each tracer is shown in FIG. 2a. […] There was a trend for higher tumour SUVmax for (4) tracer compared to all other tracers at all time points. […] A comparison of tumour uptake values is shown in FIG. 2b and the tissue biodistribution data for the tracers at 1 and 18 hr is summarised in FIG. 3.
(§3) ^68Ga Labelled tracers: Representative PET images of mice injected with ^68Ga(1) and ^68Ga(4) are shown in FIG. 4 and quantitation of the tumour SUVmax is shown in FIG. 5a. […] Tumour uptake of ^68Ga(4) was 1.6 and 1.8 fold higher than ^68Ga(1) at 1 and 2 hr p.i., respectively. This is consistent with the biodistribution results where tumour % ID/g for ^68Ga(4) was higher than ^68Ga(1) at 1 hr (10.8±1.3 vs 6.5±0.4) and at 2.5 hr (8.6±1.0 vs 4.1±0.5) p.i. […] (6.5±0.4% ID/g at 1 hr vs 4.1±0.5% ID/g at 2.5 hr). In contrast, there was no significant change in ^68Ga(4) tumour retention at 1 and 2.5 p.i. (10.8±1.3% ID/g vs […], FIG. 5b).

in vivo = test: in vivo; design: species or system mice; conditions: male, mouse, total radioactivity
Method: as §1, §2, §3

[2] = system: LNCaP (human PSMA expressing prostate cancer cell line) tumour; test: in vivo; design: species or system mice; conditions: mouse
Method: as §1, §2, §3

[3] = system: AR42J (rat pancreatic cancer cell line) tumour; test: in vivo; design: species or system mice; conditions: mouse
Method: (§4) PET-CT imaging and Biodistribution of Octreotate/tide Tracers. Female Balb/c nude mice (age 9 weeks) were inoculated subcutaneously on the right flank with 3×10^6 AR42J cells in PBS:Matrigel (1:1). Mice were weighed and tumours measured twice weekly using electronic callipers. Tumour volume (mm^3) was calculated as length^2×width/2. 12 mice were assigned for imaging and biodistribution studies (tumour volumes: 170-550 mm^3). DFOSqTIDE (2.5 MBq) and DFOSqTATE (2.2 MBq) were administered intravenously by tail vein injection to mice on. At 1, 2, 4 and 18 hr post injection three mice were anaesthetised using isoflurane and placed on the imaging bed of a G8 PET/CT scanner (Perkin Elmer). A CT scan was performed which was immediately followed by a 10 min static PET scan. PET images were reconstructed using the maximal likelihood and expectation maximization (ML-EM) algorithm. PET images were analysed using VivoQuant (Invicro) and Tumour SUVmax, Tumour SUVmax/background average (TBR) and Tumour SUVmax/liver average (TLR) determined. After imaging at 18 hr mice were euthanised and selected tissues were excised, weighed and counted using a Capintec (Captus 4000e) gamma counter. A separate cohort of 3 mice was harvested at 1 hr post injection for biodistribution analysis. The data was analysed using GraphPad Prism 7 and differences between tracers analysed using a t-test.
AR42J (rat pancreatic cancer cell line) tumour bearing Balb/c nude mice as described above were injected intravenously via tail vein injection with ^89ZrDFOSqTATE or ^89ZrDFOSqTIDE (2-3 MBq). At 1, 2, 4 and 18 h post-injection the mice were anaesthetised with isoflurane and imaged over 10 min. At 1 hr after injection of DFOSqTIDE and DFOSqTATE, uptake into kidney, tumour and liver was observed. Representative PET images of mice injected with DFOSqTIDE and DFOSqTATE are shown in FIG. 12 and quantitation of the tumour SUVmax for each radiotracer is summarised in FIG. 13a.
^68GaDFOSq-TIDE and ^68GaDFOSq-TATE tracers were injected (2-3 MBq, 1 μg, 0.5 nmol) intravenously via tail vein to AR42J (rat pancreatic cancer cell line) tumour bearing Balb/c nude mice. PET images were acquired at 1 and 2 h post-injection (FIGS. 15a and b). […] Quantification of the uptake in the images using Standard Uptake Value (SUVmax=radioactivity in a tissue/injected activity/BW) confirms the higher uptake for ^68GaDFOSq-TATE (1 h; SUVmax 1.8±0.2, compared to 1.21±0.20, FIG. 15c). The higher tumor uptake of ^68GaDFOSqTATE was also associated with a higher degree of tumor retention at 2 h post injection with only a 5% reduction in SUVmax whereas the tumor SUVmax for ^68GaDFOSqTIDE reduced by 30% ^68GaDFOSqTATE at 2 h post injection. Both tracers clear rapidly from the blood and there is low uptake in bone consistent with stable gallium-68 complexes as well as low uptake in muscle. Both tracers have significant uptake in the kidneys and bladder.

[4] = system: AR42J (rat pancreatic cancer cell line) tumour; test: in vivo; design: species or system mice; conditions: female, Balb/c nude, mouse, iv
Method: as §4, with “t-test. The high tumor uptake was confirmed by an ex vivo biodistribution study in the same mouse model where mice were injected with either ^68GaDFOSq-TIDE and ^68GaDFOSq-TATE (2-3 MBq, 1 μg, 0.5 nmol) and then euthanised at either 1 h or 2 h after administration. The amount of injected activity per gram of tissue (% IA/g) in the tumor and major organs was quantified (FIG. 16).” for “t-test.”

LNCap cells = test: Cell binding and internalization studies in LNCap cells; assay type: cell-based, human; conditions: 89Zr tracers, 60 min, 37° C.
Method: Cell binding and internalization studies. LNCap cells (150,000/well) were plated in RPMI 1640 medium containing 10% FBS into wells of a 24 well plate pre-coated with 0.05% poly-L-lysine and incubated overnight at 37° C. and 5% CO2. The following day cells were washed twice with PBS and incubated for 1 hour at 37° C. in 1 mL per well internalisation buffer (MEM, 1% FBS). The buffer was then replaced with 1 ml per well of a warmed solution containing 0.5 μCi ^89Zr-DFOsq-PSMA tracers in internalisation buffer. Cells were incubated in triplicate for 5, 15, 30 or 60 min at 37° C. and 5% CO2. At each time point, cells were washed twice with ice-cold PBS and the washes collected for counting (unbound fraction). Cells were then incubated twice for 10 min in saline containing 10 μM PMPA and each wash collected for counting (surface bound fraction). The cells were then solubilised in 1 M NaOH (internalised fraction). Total protein content was determined in this fraction using a BCA protein assay kit (Pierce). A Perkin Elmer 2480 Wizard automatic gamma counter was then used to measure Zr-89 radioactivity in unbound, surface bound and internalised fractions. Surface bound and internalised fractions were expressed as percentage of total added radioactivity per mg of protein. Non-specific membrane binding and internalisation was determined by incubating cells with the ^89Zr-DFOSq-PSMA tracers in the presence of excess (10 μM) PMPA. ^89Zr-DFOSq-PSMA tracers uptake at 60 min was also determined in DU145 cells (seeded at 125,000 cells/well), a PSMA negative cell line. The raw data was analysed using GraphPad Prism 7.

For `CC(=O)N(O)CCCCCNC(=O)CCC(=O)N(O)CCCCCNC(=O)CCC(=O)N(O)CCCCCNc1c(NCCN(CCNC(=O)CCCC(=O)NCc2ccc(C(=O)NCCCCC(NC(=O)NC(CCC(=O)O)C(=O)O)C(=O)O)cc2)CCNC(=O)CCCC(=O)NCc2ccc(C(=O)NCCCCC(NC(=O)NC(CCC(=O)O)C(=O)O)C(=O)O)cc2)c(=O)c1=O` (single isomer, unassigned) [^68Ga(4), metal not drawn], the “Gut uptake in PET images” value [1] was “no gut uptake”, the “Kidney uptake in PET images” value [1] was “high kidney uptake” and the “LNCap tumour uptake in PET images” value [1] was “moderate tumour uptake”. The “Tumour SUVmax 1 h pi” value [1] was 1.6 ± 0.10, the “Tumour SUVmax 2 h pi” value [1] was 1.5 ± 0.09 and the tissue uptake at 1 h (in vivo; Tumour Uptake % ID/g 1 h pi) was 10.8 ± 1.26 %ID/g. The tissue uptake at 2.5 h (in vivo; Tumour Uptake % ID/g 2.5 h pi) was 8.6 ± 0.93 %ID/g and the “Tumour Uptake % ID/g 1 h pi” value [2] was 10.8±1.3 % ID/g.

For `CC(=O)N(O)CCCCCNC(=O)CCC(=O)N(O)CCCCCNC(=O)CCC(=O)N(O)CCCCCNc1c(N[C@H](Cc2ccccc2)C(=O)N[C@H]2CSSC[C@@H](C(=O)N[C@H](C(=O)O)[C@@H](C)O)NC(=O)[C@H]([C@@H](C)O)NC(=O)[C@H](CCCCN)NC(=O)[C@@H](Cc3c[nH]c4ccccc34)NC(=O)[C@H](Cc3ccc(O)cc3)NC2=O)c(=O)c1=O` (89Zr complex, metal not drawn) [^89ZrDFOSqTATE] (H-[X1]([Suc-X2])CY[dW]KTCT-OH; disulfide 2-7), the “Tumour SUVmax 1 h pi” value [3] was 3.1 ± 0.2, the “Tumour SUVmax 18 h pi” value [3] was 1.3 ± 0.15 and the “Tumour SUVmax Clearance %” value [3] was 58%. For the same molecule, the “Tumour Uptake % ID/g 1 h pi” value [4] was 10.4 ± 0.5 % ID/g and the “Tumour Uptake % ID/g 18 h pi” value [4] was 4.9 ± 0.8 % ID/g.

For `CC(=O)N(O)CCCCCNC(=O)CCC(=O)N(O)CCCCCNC(=O)CCC(=O)N(O)CCCCCNc1c(NCCN(CCNC(=O)CCCC(=O)NCCCCC(NC(=O)NC(CCC(=O)O)C(=O)O)C(=O)O)CCNC(=O)CCCC(=O)NCCCCC(NC(=O)NC(CCC(=O)O)C(=O)O)C(=O)O)c(=O)c1=O` (single isomer, unassigned) [^89Zr(3), metal not drawn], the “Tumour SUVmax 1 h pi” value [1] was 1.7 ± 0.12, the “Tumour SUVmax 18 h pi” value [1] was 0.6 ± 0.06 and the “Tumour SUVmax Clearance %” value [1] was 65%. The “Tumour Uptake % ID/g 1 h pi” value ([2]; male, iv, 1 h) was 5.9 % ID/g, the “Tumour Uptake % ID/g 18 h pi” value ([2]; male, iv, 18 h) was 2.5 ± 0.22 % ID/g and the “Cell Uptake % AR/mg protein (60 min) Surface bound” value (LNCap cells) was 2.2 ± 0.14 % AR/mg protein. The “Cell Uptake % AR/mg protein (60 min) internalized” value (LNCap cells) was 3.8 ± 0.39 % AR/mg protein.

For `CC(=O)N(O)CCCCCNC(=O)CCC(=O)N(O)CCCCCNC(=O)CCC(=O)N(O)CCCCCNc1c(N[C@H](Cc2ccccc2)C(=O)N[C@H]2CSSC[C@@H](C(=O)N[C@H](CO)[C@@H](C)O)NC(=O)[C@H]([C@@H](C)O)NC(=O)[C@H](CCCCN)NC(=O)[C@@H](Cc3c[nH]c4ccccc34)NC(=O)[C@H](Cc3ccc(O)cc3)NC2=O)c(=O)c1=O` (89Zr complex, metal not drawn) [^89ZrDFOSqTIDE] (H-[X1]([Suc-X2])CY[dW]KTC[Thr(ol)]; disulfide 2-7), the “Tumour SUVmax 1 h pi” value [3] was 1.1 ± 0.07, the “Tumour SUVmax 18 h pi” value [3] was 0.5 ± 0.01 and the “Tumour SUVmax Clearance %” value [3] was 55%. The “Tumour Uptake % ID/g 1 h pi” value [4] was 3.4 ± 0.4 % ID/g and the “Tumour Uptake % ID/g 18 h pi” value [4] was 1.7 ± 0.1 % ID/g.
